Measurements from patent publication US20250304666A1 (ALCHEMAB THERAPEUTICS, published 2025).

T1: reduced CFH (Homo sapiens (Human), UniProt P08603 860-1231, limits assumed)
T1 construct: also called CFH (reduced)
T1 sequence: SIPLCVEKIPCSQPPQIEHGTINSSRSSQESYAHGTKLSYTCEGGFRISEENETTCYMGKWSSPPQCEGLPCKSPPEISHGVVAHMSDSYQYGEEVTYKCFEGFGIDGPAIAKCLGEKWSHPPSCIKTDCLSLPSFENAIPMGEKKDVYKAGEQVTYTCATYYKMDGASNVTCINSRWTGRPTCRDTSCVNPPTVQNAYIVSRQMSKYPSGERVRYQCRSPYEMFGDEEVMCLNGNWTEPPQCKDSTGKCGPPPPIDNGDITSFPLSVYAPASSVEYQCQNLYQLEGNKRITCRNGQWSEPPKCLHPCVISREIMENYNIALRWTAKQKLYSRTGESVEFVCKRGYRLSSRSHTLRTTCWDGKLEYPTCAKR

T2: non-reduced CFHR3
T2 construct: also called CFHR3 (NON-REDUCED)
T2 chain: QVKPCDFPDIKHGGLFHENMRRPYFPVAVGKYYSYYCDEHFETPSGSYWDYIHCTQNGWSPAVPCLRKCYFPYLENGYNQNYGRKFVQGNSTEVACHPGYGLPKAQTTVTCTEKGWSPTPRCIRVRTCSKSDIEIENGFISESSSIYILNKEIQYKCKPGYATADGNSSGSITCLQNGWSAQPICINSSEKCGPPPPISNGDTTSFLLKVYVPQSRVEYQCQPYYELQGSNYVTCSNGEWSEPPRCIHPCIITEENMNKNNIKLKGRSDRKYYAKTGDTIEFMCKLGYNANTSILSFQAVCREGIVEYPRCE

T3: non-reduced CFH
T3 construct: also called CFH (NON-REDUCED)
T3 chain: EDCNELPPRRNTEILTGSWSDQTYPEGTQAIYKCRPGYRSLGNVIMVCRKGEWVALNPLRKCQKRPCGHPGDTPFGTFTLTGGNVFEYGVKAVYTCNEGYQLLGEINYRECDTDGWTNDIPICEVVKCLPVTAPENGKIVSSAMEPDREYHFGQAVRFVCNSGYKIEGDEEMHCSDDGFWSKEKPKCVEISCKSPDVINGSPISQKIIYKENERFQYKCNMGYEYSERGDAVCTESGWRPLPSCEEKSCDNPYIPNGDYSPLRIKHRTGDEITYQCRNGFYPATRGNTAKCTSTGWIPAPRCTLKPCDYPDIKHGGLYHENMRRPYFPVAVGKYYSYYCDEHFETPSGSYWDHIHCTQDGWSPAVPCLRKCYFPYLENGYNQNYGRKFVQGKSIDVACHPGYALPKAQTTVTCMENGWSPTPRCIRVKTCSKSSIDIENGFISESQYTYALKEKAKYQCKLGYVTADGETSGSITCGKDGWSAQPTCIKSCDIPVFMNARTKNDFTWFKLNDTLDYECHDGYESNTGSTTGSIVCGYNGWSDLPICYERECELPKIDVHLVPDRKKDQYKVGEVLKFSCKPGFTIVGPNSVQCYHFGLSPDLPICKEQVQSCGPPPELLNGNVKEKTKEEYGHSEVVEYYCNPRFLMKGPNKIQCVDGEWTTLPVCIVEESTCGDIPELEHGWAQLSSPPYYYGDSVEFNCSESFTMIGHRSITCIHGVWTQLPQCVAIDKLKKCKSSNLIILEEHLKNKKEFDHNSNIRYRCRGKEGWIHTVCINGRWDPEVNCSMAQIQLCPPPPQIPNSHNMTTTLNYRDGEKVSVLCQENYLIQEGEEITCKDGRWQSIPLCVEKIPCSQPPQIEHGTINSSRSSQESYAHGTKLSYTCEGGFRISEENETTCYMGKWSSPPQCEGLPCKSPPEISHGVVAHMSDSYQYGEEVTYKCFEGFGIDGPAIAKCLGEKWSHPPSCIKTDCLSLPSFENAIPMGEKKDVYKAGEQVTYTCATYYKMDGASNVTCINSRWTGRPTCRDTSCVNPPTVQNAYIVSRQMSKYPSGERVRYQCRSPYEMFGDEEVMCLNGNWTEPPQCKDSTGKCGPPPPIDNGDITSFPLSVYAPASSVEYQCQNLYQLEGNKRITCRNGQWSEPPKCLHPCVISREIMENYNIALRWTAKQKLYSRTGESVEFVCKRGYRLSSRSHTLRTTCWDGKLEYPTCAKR


Legend:
[1] = biological target: T1, reduced CFH; test: direct ELISA on reduced CFH
[2] = biological target: T1, reduced CFH; test: ELISA on reduced CFH after heating the mAb (70 C, 1 h, as Figure 16)
[3] = biological target: T2, non-reduced CFHR3; test: ELISA, non-reduced antigen
[4] = biological target: T3, non-reduced CFH; test: ELISA, non-reduced antigen
[5] = biological target: T4, immobilised biotinylated full-length CFH (reduced) (Homo sapiens (Human), UniProt P08603 19-1231, biotinylated; reduced with 20 mM dithiothreitol); test: BLI, biotinylated reduced full-length CFH on streptavidin tips, 1:1 global fit
T4 construct: Purified endogenous full-length CFH immobilised by biotin on streptavidin BLI sensors; also called immobilised CFH; surface immobilised CFH
Protocol: (§1) Biolayer interferometry (BLI, Octet 96Red) was used to measure binding kinetics of the interactions between anti-CFH antibodies and CFH. The CFH used for kinetics measurements was purified endogenous CFH was biotinylated and reduced with 20 mM dithiothreitol (DTT). An irrelevant protein was treated in the same way as a negative control reference. The CFH or irrelevant control ligands were each immobilised via the conjugated biotin onto a set of streptavidin (SA) sensor tips. Sensors were dipped into reference kinetics buffer (Phosphate buffered saline (PBS), pH 7.4, 0.05% Tween-20, 2% w/v not fat milk powder) to achieve a steady baseline. Association was measured over 300 s by dipping the sensors into an analyte concentration series of anti-CFH antibody (33.3-2.08 nM in kinetics buffer) as well as a no analyte control (kinetics buffer only). Dissociation was measured over 1500 s by dipping the sensors into kinetics buffer only. Baseline, association and dissociation steps were all measured with sensors shaking at 800 rpm and at a temperature of 23° C. Data was analysed with Data Analysis HT 11.1.0.25 software. Data from reference sensors and analyte control were subtracted. Data was corrected by aligning y-axis to average of baseline 5 s before association, inter step correction aligned to start of baseline and using Savitzky-Golay filtering. Data was fit to a 1:1 model using association and dissociation phases and kinetic rate constants are reported for the global fit where each curve R2 is >0.9.

[6] = biological target: T4, immobilised biotinylated full-length …; test: BLI (Octet), biotinylated reduced CFH on streptavidin sensors, antibody 33.3-2.08 nM as analyte, 1:1 global fit; lower end of the printed KD range
Protocol: as §1, with “Data was fit to a 1:1 model using association and dissociation phases and kinetic rate constants are reported for the global fit where each curve R2 is >0.9.” left out

Binder	EC50 (read off the curve) [1]	Harsh Heat challenge ELISA value [2]	binding result [3]	fold change vs isotype at 1 ug/ml [3]	fold change vs isotype at 1 ug/ml [4]	Kd [5]	koff [5]	kon [5]	Kd [6]
ATL4717 (antibody, human IgG1, kappa, V domains shown, Human IgG1; also called ATL0004717; ATL04717) VH: QVQLVESGGGMVQPGRSLRLSCAASGFTFSIYGMHWVRQAPGRGLEWVAVMSFDGKTKYYADSVKGRFTISRDNSKNTLYLQMNSLRRVDTAVYYCAKGGATAAVFDSWGQGTLVTVSS VL: not shown	~0.1 nM	0.04	no binding (tested: 1 ug/ml)	0.9 fold	7.3 fold				
ATL5170 (antibody, human IgG1, kappa, V domains shown, IgG1; also called ATL_0005170) VH: QVQLVESGGGVVQPGRSLRLSCAASGFTFSNYGMHWVRQAPGKGLEWVAVTSFDGKTKYYADSVKGRFTISRDNSKNTLYLQMNSLRAEDTAVYYCAKGGATAAVLDSWGQGTLVTVSS VL: not shown		0.49	no binding (tested: 1 ug/ml)	1 fold	10 fold	0.85 nM	0.000348 s⁻¹	409000 M⁻¹ s⁻¹	0.402 to 1.46 nM
